Assay results reported in PMC8240856 (The Journal of Cell Biology, 2021).
Read-outs that look alike come from different tables or passages of the source.

Legend:
His6-Vps4 [1] = biological target: T1, His6-Vps4 (S. cerevisiae, UniProt P52917 1-437); test: pull-down
T1 sequence: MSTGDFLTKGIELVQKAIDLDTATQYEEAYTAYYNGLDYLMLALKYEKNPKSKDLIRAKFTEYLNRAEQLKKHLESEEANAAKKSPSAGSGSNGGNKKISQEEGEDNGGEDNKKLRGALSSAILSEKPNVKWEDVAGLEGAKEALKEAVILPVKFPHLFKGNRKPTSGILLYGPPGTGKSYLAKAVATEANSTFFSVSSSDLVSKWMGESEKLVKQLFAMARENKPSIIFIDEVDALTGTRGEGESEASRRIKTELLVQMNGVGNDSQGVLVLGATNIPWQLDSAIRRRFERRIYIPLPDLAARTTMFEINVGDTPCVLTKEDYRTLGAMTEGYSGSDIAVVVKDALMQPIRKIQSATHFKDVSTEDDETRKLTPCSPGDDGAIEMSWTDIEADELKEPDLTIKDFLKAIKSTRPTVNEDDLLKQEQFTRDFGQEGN

His6-Vps4 [2] = biological target: T1, His6-Vps4; test: pull-down; remark: listed apart in the source

Row | Binder | binding result (His6-Vps4 [1]) | binding result (His6-Vps4 [2])
1 | GST-Bro1V(370-709) (domain or fragment) DVYEKESIYSEEKATLLRKQVEETETANLEYSSFIEFTNLPRLLSDLEKQFSDGNIFSNTDTQGQLMRDQIQTWCKFIQTNEFRDIEEQMNKIVFKRKQILEILSALPNDQKENVTKLKSSLVAASNSDEKLFACVKPHIVEINLLNDNGKIWKKFDEFNRNTPPQPSLLDIDDTKNDKILELLKQVKGHAEDLRTLKEERSRNLSELRDEINNDDITKLLIINKGKSDVELKDLFEVELEKFEPLSTRIEATIYKQSSMIDDIKAKLDEIFHLSNFKDKSSGEEKFLEDRKNFFDKLQEAVKSFSIFASDLPKGIEFYDSLFNMSRDLAERVRVAKQTE | binds | –
2 | Bro1 V domain (Bro1V; aa 370-709) (domain or fragment) DVYEKESIYSEEKATLLRKQVEETETANLEYSSFIEFTNLPRLLSDLEKQFSDGNIFSNTDTQGQLMRDQIQTWCKFIQTNEFRDIEEQMNKIVFKRKQILEILSALPNDQKENVTKLKSSLVAASNSDEKLFACVKPHIVEINLLNDNGKIWKKFDEFNRNTPPQPSLLDIDDTKNDKILELLKQVKGHAEDLRTLKEERSRNLSELRDEINNDDITKLLIINKGKSDVELKDLFEVELEKFEPLSTRIEATIYKQSSMIDDIKAKLDEIFHLSNFKDKSSGEEKFLEDRKNFFDKLQEAVKSFSIFASDLPKGIEFYDSLFNMSRDLAERVRVAKQTE | binds | –
3 | Bro1V^M9 (T587D) (domain or fragment) DVYEKESIYSEEKATLLRKQVEETETANLEYSSFIEFTNLPRLLSDLEKQFSDGNIFSNTDTQGQLMRDQIQTWCKFIQTNEFRDIEEQMNKIVFKRKQILEILSALPNDQKENVTKLKSSLVAASNSDEKLFACVKPHIVEINLLNDNGKIWKKFDEFNRNTPPQPSLLDIDDTKNDKILELLKQVKGHAEDLRTLKEERSRNLSELRDEINNDDIDKLLIINKGKSDVELKDLFEVELEKFEPLSTRIEATIYKQSSMIDDIKAKLDEIFHLSNFKDKSSGEEKFLEDRKNFFDKLQEAVKSFSIFASDLPKGIEFYDSLFNMSRDLAERVRVAKQTE | binds | –
4 | Bro1V^M10 (K481D) (domain or fragment) DVYEKESIYSEEKATLLRKQVEETETANLEYSSFIEFTNLPRLLSDLEKQFSDGNIFSNTDTQGQLMRDQIQTWCKFIQTNEFRDIEEQMNKIVFKRKQILEILSALPNDQDENVTKLKSSLVAASNSDEKLFACVKPHIVEINLLNDNGKIWKKFDEFNRNTPPQPSLLDIDDTKNDKILELLKQVKGHAEDLRTLKEERSRNLSELRDEINNDDITKLLIINKGKSDVELKDLFEVELEKFEPLSTRIEATIYKQSSMIDDIKAKLDEIFHLSNFKDKSSGEEKFLEDRKNFFDKLQEAVKSFSIFASDLPKGIEFYDSLFNMSRDLAERVRVAKQTE | binds | –
5 | Bro1V^M8 (E686A, L691D) (domain or fragment, S. cerevisiae, UniProt P48582 370-709, looked up) DVYEKESIYSEEKATLLRKQVEETETANLEYSSFIEFTNLPRLLSDLEKQFSDGNIFSNTDTQGQLMRDQIQTWCKFIQTNEFRDIEEQMNKIVFKRKQILEILSALPNDQKENVTKLKSSLVAASNSDEKLFACVKPHIVEINLLNDNGKIWKKFDEFNRNTPPQPSLLDIDDTKNDKILELLKQVKGHAEDLRTLKEERSRNLSELRDEINNDDITKLLIINKGKSDVELKDLFEVELEKFEPLSTRIEATIYKQSSMIDDIKAKLDEIFHLSNFKDKSSGEEKFLEDRKNFFDKLQEAVKSFSIFASDLPKGIAFYDSDFNMSRDLAERVRVAKQTE | – | binds
6 | Bro1V^M4 (V505A, H508A, I512A) (domain or fragment) DVYEKESIYSEEKATLLRKQVEETETANLEYSSFIEFTNLPRLLSDLEKQFSDGNIFSNTDTQGQLMRDQIQTWCKFIQTNEFRDIEEQMNKIVFKRKQILEILSALPNDQKENVTKLKSSLVAASNSDEKLFACAKPAIVEANLLNDNGKIWKKFDEFNRNTPPQPSLLDIDDTKNDKILELLKQVKGHAEDLRTLKEERSRNLSELRDEINNDDITKLLIINKGKSDVELKDLFEVELEKFEPLSTRIEATIYKQSSMIDDIKAKLDEIFHLSNFKDKSSGEEKFLEDRKNFFDKLQEAVKSFSIFASDLPKGIEFYDSLFNMSRDLAERVRVAKQTE | binds | –
